Consider 7 compounds from paper PMC4960888, “Gd-nanoparticles functionalization with specific peptides for ß-amyloid plaques targeting” (Journal of Nanobiotechnology, 2016).

“Also recorded” adds a separate entry of the source.

A short description of data set [1]: Dynamic light scattering, hydrodynamic diameter. It is filed as physicochemical. Particulars: DLS, Zetasizer NanoS, 532 nm, 10 mM Gd^3+, 0.2 µm filtered; measurement repeated 8 times. The method, then: Hydrodynamic diameters (DH) of the Nps were determined with a Zetasizer NanoS (laser He–Ne 532 nm) from Malvern Instrument® (5 mW, with 173° NIBS detector and narrow band filter). Attenuator was optimized by the device and position was set to the center of the cell. To perform the measurement, 1 mL of nanoparticles suspensions at 10 mM Gd^3+ was poured in a 12 mm square polystyrene disposable cuvette after filtration on a 0.2 µm cut-off nylon filter. Each measurement was repeated 8 times.

Data set [2] in a line: Relaxivity measurements (60 MHz, 37 °C). In kind it is physicochemical. The note with it: 60 MHz (1.4 T), Bruker minispec mq60, Gd^3+ concentration by ICP-OES. The method, then:
Relaxivity measurements were performed on a Bruker® minispec mq60NMR analyzer (Brucker, USA) at 37 °C at 1.4 T (60 MHz). Samples were measured at a specific Gd^3+ concentration (mM), calculated from ICP-OES. The longitudinal relaxation time T1 and the transverse relaxation time T2 (s) were measured at 60 MHz and at 37 °C. Then the relaxivities ri (s^−1 mM^−1) were obtained according to the following formula: 1/Timeasured=1/Tiwater+riGd^3+ where i = 1 or 2.

Data set [3] deals with SH-SY5Y. Nature of the data set: MTT cell viability.
Method: The innocuousness of the grafted Nps was assessed using a neuronal cell line SH-SY5Y. The cell viability was assessed using the 3-(4,5-dimethylthiazol-2yl)-2,5-diphenyltetrazolium bromide (MTT) assay^63. SH-SY5Y cells were cultured in DMEM/F12 medium supplemented with 10 % fetal bovine serum and 1 % penicillin -streptomycin /amphotericin B. For the assay, the cells were plated at a density of 50 000 cells/well in 200 µl of medium. […] Nps were added to the cells and incubated at 37 °C, 5 % CO2. One hour later, 10 μL of MTT solutions (12 mM) was added into each well, and the plates were incubated for another 2 h at 37°C, 5% CO2. The culture medium was removed, and the precipitated cells were lysed using DMSO. After 10 minutes, the purple crystals were dissolved completely; the cell viability was calculated from the absorbance signals measured by a plate reader (Tecan Infinite M200) at 540 nm. The absorbance of the wells containing medium-only, corresponding to the background, were subtracted from the value of each reading. Data are expressed in % of cell viability, each MTT analysis was carried out on triplicate samples.
Data set [4] relates to V30M-TTR fibrils. Briefly: SPR binding to V30M-TTR fibrils. On the set-up: species or system human. The note with it: 800 R.U. V30M-TTR fibrils, 0.02–6.4 mM in peptide, R.U. 141 s after end of injection. From the text:
N-(3-Dimethylaminopropyl)-N′-ethylcarbodiimide hydrochloride (EDC, >98.0 %), N-hydroxysuccinimide (NHS, >97.0 %), gadolinium chloride hexahydrate ([GdCl3·6H2O], 99 %), sodium hydroxide (NaOH, 99.99 %), hydrochloric acid (HCl, 36.5–38 %), sodium chloride (NaCl, >99.5 %), dimethyl sulfoxide (DMSO, >99.5 %), acetonitrile (CH3CN, >99.9 %), trifluoroacetic acid (TFA, >99 %), trinitrobenzene sulfonic acid (TNBS) 1 M in water, sodium dodecyl sulfate (SDS, >99 %), (3-aminopropyl)triethoxysilane (APTES, >98 %), tetraethyl orthosilicate (TEOS; >98 %) and Poly(ethylene glycol) bis(carboxymethyl) ether (PEG) with an average molecular weight Mn = 250 g mol^−1 were purchased from Aldrich Chemical (France) and used without further purification. Diethylene glycol (DEG, 99 %) was purchased from SDS Carlo Erba (France). Acetone (reagent grade) was purchased from Sodipro (France) and was used as received. […] Recombinant human V30M-TTR protein was obtained following cloning its gene in the plasmid pQE81L and its expression in Escherichia coli (M15). Briefly, bacterial cultures were performed in LB medium, 100 µg mL^−1 ampicillin and 25 µg mL^−1 kanamycin, at 37 °C, under constant orbital shaking. Protein production was pursued for 7 h after IPTG induction when the absorbance was 0.700 at 600 nm. The bacterial pellet of 50 mL of culture was resuspended in sodium phosphate 50 mM, pH 8, sodium chloride 300 mM, imidazole 10 mM, betamercaptoethanol 10 mM, supplemented with 500 µL of a protease inhibitor, phenylmethylsulfonyl fluoride (Sigma, #78830), at 1 mM final and a cocktail of protease inhibitor EDTA-free (Roche, #11873580001). The suspension was sonicated during a total time of 6 min with repeated cycles of 5/7 s off with an amplitude of 20 %, then centrifuged during 30 min at 100,000g, to pellet cellular debris. The supernatant was filtered on 0.2 µm cut off filters. The purification of the protein was performed on immobilized metal ion chromatography (Chelating Fast Flow, Amersham #17057501), and dialyzed against 20 mM·NH4HCO3 (membrane cutoff 1/10,000; 3500 MWCO Spectrapore). Finally, the protein was freeze-dried. The protein quality was checked by SDS PAGE gel 15 %. The Pittsburgh compound-B (PIB) derivative molecule was synthetized according to the procedure already described in the literature. Starting from the p-anisidine, the p-nitrobenzoyl amide was readily obtained and then the corresponding thioamide was prepared by reaction with Lawesson’s reagent. Finally, an oxidative cyclization was done to lead to the benzothiazole derivative, and the nitro function was reduced to give compound (Synthesis’ details in Additional file 1). […]
On the technique in general: Surface plasmon resonance follows binding to a sensor surface in real time, without labels.

The test system of data set [5] is Aβ amyloid plaques (APPswe/PS1A246E/TTR(−/−) transgenic mouse brain sections). Nature of the data set: Immunohistochemistry on AD mouse brain sections with amyloid plaques. The note with it: 10 months old APPswe/PS1A246E/TTR(−/−) hippocampus, nanoparticles at 3 nM Cy5.5 (2 mM Gd^3+) with 3 mM ungrafted nanoparticles, or PIB 1 µM, 1h30 RT, fluorescence.
In data set [6] the test system is fibrils. Nature of the data set: Cy5.5 staining of fibrils in vitro (personal data). It is filed as binding. Particulars: in vitro on fibrils (personal data).
The test system of data set [7] is Aβ amyloid plaques (APPswe/PS1A246E/TTR(−/−) transgenic mouse brain sections). The note with it: cited from earlier work. The method, then:
The specificity of functionalized nanoparticles binding was verified, by incubating nanoparticles without grafted-peptides, AGuIX@PEG@Cy5.5, on brain section containing amyloid burden. […] Whereas, various other cyanine derivative d ...

Data set [8] concerns the target T1, Aβ(1–42) fibrils (Homo sapiens, UniProt P05067).
T1 construct: Freeze-dried Aβ(1–42) peptide (Genecust) was dissolved in distilled water at pH 11.0; purchased Genecust (Luxembourg)
Nature of the data set: Partition (spectrofluorometric) binding to Aβ(1–42) fibrils. The note with it: 20 µM fibrils, 2 µM nanoparticles, saturated with 3 mM AGuIX, 60 min; data not shown.

Data set [9] addresses T1, Aβ(1–42) fibrils. Nature of the data set: SPR binding to Aβ(1–42) fibrils.
Method: The surface plasmon resonance assays were performed using a BIAcore® 2000 biosensor. The instrument was equipped with a CM3 sensor chip (GE Healthcare®, Uppsala, Sweden). The interaction studies took place on a gold chip functionalized with carboxymethylated dextran. The sensor surface itself form one wall of a flow cell, which is an integral part of the microfluidic system. All SPR experiments were performed at 25 °C. HEPES buffer (HBS-P, GE Healthcare®, 0.01 M HEPES, 0.15 M NaCl, 0.005 % surfactant p20) was used as running buffer.
For immobilization, amine coupling reagents were obtained from the GE Healthcare® kit containing 0.2 M EDC in water, 0.05 M NHS in water and ethanolamine-HCl pH 8.5. […] Aβ(1–42) and V30M-TTR fibrils were immobilized on the flow cell 2 and 4 respectively of a CM3 sensor chip with an amine coupling reaction. After the chip activation by EDC/NHS during 7 min, the fibrils were injected at: 10 µM in 10 mM sodium acetate pH 4 at a flow rate of 5 µL min^−1 during 20 min for Aβ(1–42) fibrils or at 0.36 µM in 10 mM sodium acetate pH 5.5 at a flow rate of 5 µL min^−1 during 100 min for V30M-TTR fibrils. […]
Biacore® experiments gathered data from 3 cycles for each studied analyte. […] Results of the interaction between the analytes and the Aβ(1–42) or V30M-TTR fibrils were represented on a sensorgram expressed as respectively FC2-1 or FC4-3 (RU-RUdextran) versus time. […]
Data set [10] deals with amyloid fibrils. Particulars: cited from earlier work. An excerpt: Currently, magnetic resonance imaging (MRI) is the preferred neuroimaging examination for AD as it allows an accurate measurement of brain structures’ volume, although a decrease of this latter appears to be a nonspecific and late feature of cerebral vascular diseases’ progression. Thus, studies are under way to develop specific imaging markers for different types of dementia, including markers of senile plaques for very-high-field MRI and positron emission tomography (PET). A better characterization of the amyloid plaque presence and load in the brain can be also expected from i ...

T1 sequence (P05067 672-713): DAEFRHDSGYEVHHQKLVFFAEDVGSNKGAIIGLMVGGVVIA

Consider LPFFD [AGuIX@PEG@LPFFD], for which, in [1], the hydrodynamic diameter amounted to 3.2 ± 0.8 nm. The “r1 (longitudinal relaxivity)” value in data set [2] was 13.2 s⁻¹ mM⁻¹. Further, the “cells alive (Fig. S7)” value in data set [3] (1 h at 37 °C, 5 % CO2, up to 2 mM nanoparticles, MTT 2 h, 540 nm, triplicate) is given as “more than 80%”.
Regarding `CNC[C@H](O)[C@@H](O)[C@H](O)[C@H](O)CO.O=C([O-])CN1CCN(CC(=O)[O-])CCN(CC(=O)O)CCN(CC(=O)[O-])CC1.[Gd+3]` [DOTAREM®, reference compound], the “r1 (longitudinal relaxivity)” value in data set [2] was determined as 3.4 s⁻¹ mM⁻¹.
Regarding KLVFF [AGuIX@PEG@KLVFF@Cy5.5], the “interaction with V30M-TTR fibrils” value in [4] is reported as “no specific interaction”; in data set [4] (listed as KLVFF-grafted), “did not interact with V30M-TTR fibrils”. For the same compound, the “binding/staining of amyloid plaques in AD mouse brain sections” value (shortened to “binding/staining of amyloid plaques”) is “beta-amyloid plaques were visualized; also recorded: bind selectively amyloid plaque constituted by Aβ protein” in [5]; “recognized and bound the Aβ amyloid plaque localized in the mouse hippocampus” in [5] (listed as KLVFF-grafted).
In data set [1], KLVFF [AGuIX@PEG@KLVFF] displayed a hydrodynamic diameter of 3.5 ± 0.9 nm. Moreover, the “r1 (longitudinal relaxivity)” value in [2] worked out at 14.1 s⁻¹ mM⁻¹.
On to Cy5.5 [reference compound], for which the “staining of fibrils by Cy5.5 molecule” value in [6] is listed as “does not stain fibrils”. The “staining by Cy5.5 on brain section of AD mouse model” value in data set [7] was “does not stain fibrils”. The “binding/staining of amyloid plaques” value in [5] is given as “non-binding of Cy5.5 dye to amyloid plaque; also recorded: background due to the Cy5.5 restricted to blood vessels”.
As to LPFFD [AGuIX@PEG@LPFFD@Cy5.5], the “Cy5.5 fluorescence associated with fibrils” value in data set [8] is “no fluorescence has been detected associated with fibrils”. Also, the “interaction with V30M-TTR fibrils” value is reported as “no specific interaction” in data set [4] and “did not interact with V30M-TTR fibrils” in [4] (listed as LPFFD-grafted). In addition, the “interaction (R.U. remaining 141 s after end of injection)” value in [9] (2.5 mM in Gd^3+) was “interact with Aβ(1–42) fibrils”. The “interaction over nanoparticle concentration range” value in [9] (0.02–6.4 mM in peptide, R.U. 141 s after end of injection) is listed as “displayed an interaction on Aβ(1–42) fibrils (blue curves) dependent on nanoparticle concentrations injected”. Further, the “binding/staining of amyloid plaques” value in data set [5] was “beta-amyloid plaques were visualized; also recorded: bind selectively amyloid plaque constituted by Aβ protein”; in data set [5] (listed as LPFFD-grafted), “recognized and bound the Aβ amyloid plaque localized in the mouse hippocampus”. For the same compound, the cells alive entry in data set [3] (5 mM Gd^3+, MTT) is listed as “more than 75%”; in data set [3] (1 h incubation, 0.5 to 2 mM Gd^3+, MTT), “more than 80%”. For the same compound, the “toxic effects on cells” value in data set [3] (MTT, up to 5 mM Gd^3+) is “do not exhibit any toxic effects on cells”.
As to `CNc1ccc(-c2nc3ccc(O)cc3s2)cc1` [Pittsburgh compound B, [^11C]2-(4′-methylaminophenyl)-6-hydroxybenzothiazole], in data set [10], the “binding to amyloid fibrils” value is reported as “binds with high affinity to any amyloid fibrils”.
